Test results reported in patent US20220396632A1 (VERSEAU THERAPEUTICS, published 2022).
Non-standard residues stand in square brackets, D forms with d. No end group written: not given here. *: point of attachment. Biotin = O=C1N[C@H]2[C@H](CS[C@H]2CCCCC(=O)*)N1; sY = N[C@@H](Cc1ccc(OS(=O)(=O)O)cc1)C(=O)O

T1: Sulfotyr fibrinogen γ peptide (not fully specified; Y8 and Y12 sulfated (SO3); C-terminal biotin)
T1 construct: also called Fibrinogen gamma peptide; human sulfotyrosinylated fibrinogen peptide
T1 peptide: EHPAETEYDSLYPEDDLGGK

T2: Sulfotyrosine D6 biotin peptide (human)
T2 construct: also called D6 peptide
T2 peptide: ENSSFY[sY][sY]D[sY]LDEVAFGGK(Biotin)

T3: Human fibrinogen protein (ThermoFisher, RP-43142) (human, UniProt P02671 20-629; P02675 31-491; P02679 27-453, limits assumed, natural sulfotyrosines)
T3 construct: mature; Native dimer with 3 pairs of non-identical chains; also called gamma-fibrinogen; γ fibrinogen protein
T3 sequence (looked up) 1: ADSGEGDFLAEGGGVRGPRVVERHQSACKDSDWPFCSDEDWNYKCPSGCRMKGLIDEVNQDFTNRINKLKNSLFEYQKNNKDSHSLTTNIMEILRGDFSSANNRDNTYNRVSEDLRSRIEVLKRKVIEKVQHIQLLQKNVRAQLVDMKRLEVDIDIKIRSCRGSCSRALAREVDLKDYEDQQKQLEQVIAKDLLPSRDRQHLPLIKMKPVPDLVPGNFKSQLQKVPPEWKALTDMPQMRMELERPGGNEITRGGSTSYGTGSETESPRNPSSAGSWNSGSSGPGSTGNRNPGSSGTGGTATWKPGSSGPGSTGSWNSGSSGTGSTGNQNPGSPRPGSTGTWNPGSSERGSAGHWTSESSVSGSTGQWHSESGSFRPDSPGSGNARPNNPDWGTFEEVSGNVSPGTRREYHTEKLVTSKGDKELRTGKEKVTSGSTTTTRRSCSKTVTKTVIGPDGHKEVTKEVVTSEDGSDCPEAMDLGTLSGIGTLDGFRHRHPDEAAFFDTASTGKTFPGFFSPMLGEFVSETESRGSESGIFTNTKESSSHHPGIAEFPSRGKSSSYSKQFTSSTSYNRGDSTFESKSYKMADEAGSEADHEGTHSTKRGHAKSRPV
T3 sequence (looked up) 2: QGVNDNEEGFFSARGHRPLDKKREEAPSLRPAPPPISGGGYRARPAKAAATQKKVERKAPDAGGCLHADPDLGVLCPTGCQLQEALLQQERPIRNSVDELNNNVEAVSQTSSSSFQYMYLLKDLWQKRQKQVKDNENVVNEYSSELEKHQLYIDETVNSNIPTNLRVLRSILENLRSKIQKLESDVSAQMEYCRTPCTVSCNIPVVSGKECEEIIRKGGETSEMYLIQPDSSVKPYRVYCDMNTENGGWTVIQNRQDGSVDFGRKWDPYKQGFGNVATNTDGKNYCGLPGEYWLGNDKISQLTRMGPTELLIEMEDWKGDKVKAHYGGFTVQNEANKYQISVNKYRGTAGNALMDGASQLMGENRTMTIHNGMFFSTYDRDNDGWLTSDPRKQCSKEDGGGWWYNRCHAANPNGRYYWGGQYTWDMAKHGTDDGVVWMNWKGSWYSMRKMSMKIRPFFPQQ
T3 sequence (looked up) 3: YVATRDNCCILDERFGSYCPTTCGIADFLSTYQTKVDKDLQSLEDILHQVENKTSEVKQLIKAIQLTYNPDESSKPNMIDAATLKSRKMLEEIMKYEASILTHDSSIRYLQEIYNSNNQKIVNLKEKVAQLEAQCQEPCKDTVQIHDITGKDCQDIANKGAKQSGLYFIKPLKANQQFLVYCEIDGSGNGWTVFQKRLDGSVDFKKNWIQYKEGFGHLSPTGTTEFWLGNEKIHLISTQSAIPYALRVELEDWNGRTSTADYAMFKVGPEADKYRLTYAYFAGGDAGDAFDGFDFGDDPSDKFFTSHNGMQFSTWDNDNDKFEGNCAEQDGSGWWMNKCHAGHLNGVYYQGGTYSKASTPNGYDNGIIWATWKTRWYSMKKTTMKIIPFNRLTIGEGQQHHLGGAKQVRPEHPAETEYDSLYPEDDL

T4: Sulfotyrosine CCR2b biotin peptide (human)
T4 construct: also called CCR2b peptide
T4 peptide: TTFFD[sY]D[sY]GAPSHGGK(Biotin)

T5: SulfoCCK biotin peptide (human)
T5 construct: also called sulfotyrosine CCK peptide
T5 peptide: SHRISDRD[sY]MGWMDFGGK(Biotin)

T6: SulfoTyr C4 peptide (not fully specified; Y4, Y7 and Y9 sulfated (SO3); C-terminal biotin)
T6 construct: also called C4 alpha chain peptide; human sulfotyrosinylated C4 peptide
T6 peptide: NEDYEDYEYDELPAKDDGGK

T7: Scrambled Y42,52,63(SO3) PSGL-1(42-62) biotin peptide (sulfotyrosine at peptide positions 1, 11 and 22; C-terminal Lys-biotin)
T7 peptide: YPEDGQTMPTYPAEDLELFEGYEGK

T8: Biotin Y46,48,51(SO3) PSGL-1(42-62) peptide (human, sulfotyrosine at Y46, Y48 and Y51; C-terminal Lys-biotin)
T8 construct: also called fully sulfated N-terminal PSGL-1 peptide
T8 peptide: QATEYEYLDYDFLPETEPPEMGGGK

T9: Biotin PSGL-1(42-62) peptide, unmodified (human, C-terminal Lys-biotin)
T9 construct: Residues 42-62 followed by GGGK-biotin; also called WT; wild-type
T9 peptide: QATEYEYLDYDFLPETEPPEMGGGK


Key:
[1] = target: T10, Cynomolgus PSGL-1(ECD)-hFc1 (cynomolgus macaque); assay: ELISA, plate cyno PSGL-1(ECD)-Fc
T10 construct: also called Cyno PSGL1-Fc; Cyno PSGL-1(ECD)-Fc
Description: Antibody binding to plate-immobilized cyno PSGL-1(ECD) was determined either at one concentration (20 nM) or by generating full antibody binding curves (0.003-200 nM). A typical ELISA was performed by overnight coating at 4° C. with 3 ug/mL/25 ul per well of recombinant cyno PSGL-1(ECD) protein in PBS, pH 7.4, in high binding half-well plates (Corning Cat. #3690). […] Anti-PSGL-1 IgG in assay buffer (blocking buffer containing 0.05% tween 20) was added into test and control wells (20 nM/25 ul/well) and the plate incubated for 45 min at 37° C. […] The plate was incubated for 45 min at 37° C., and mAb bound to plate-immobilized target determined at A450 nm using HRP substrate (3,3′,5,5′-tetramethylbenzidine (TMB)). For each antibody, duplicate values were averaged and assay background subtracted.

[2] = target: T1, Sulfotyr fibrinogen γ peptide; assay: ELISA, 50 nM mAb
Description: (§1) Recombinant PSGL-1-hFc1 chimera protein consisting of PSGL-1's extracellular domain (ECD) served as a positive control. […] Primary antibody was added (25 ul per well) in duplicate at 50 nM in assay buffer (blocking buffer containing 0.05% Tween®20) into test and control (just blocked) wells and the plate incubated for 45 min at 37° C.

[3] = target: T2, Sulfotyrosine D6 biotin peptide; assay: ELISA, 50 nM mAb
Description: as §1

[4] = target: T3, Human fibrinogen protein (ThermoFisher, …); assay: ELISA, 50 nM mAb
Description: as §1

[5] = target: T4, Sulfotyrosine CCR2b biotin peptide; assay: ELISA, 50 nM mAb
Description: as §1

SulfoCCK biotin peptide = target: T5, SulfoCCK biotin peptide; assay: ELISA, 50 nM mAb
Description: as §1

SulfoTyr C4 peptide = target: T6, SulfoTyr C4 peptide; assay: ELISA, 50 nM mAb
Description: as §1

[6] = target: T11, Human complement C4 protein (Millipore Sigma, Cat. 204886) (human, UniProt P0C0L4 20-675; P0C0L4 680-1446; P0C0L4 1454-1744, limits assumed, natural sulfotyrosines); assay: ELISA, 50 nM mAb
T11 construct: mature
Description: as §1

[7] = target: T7, Scrambled Y42,52,63(SO3) PSGL-1(42-62) …; assay: ELISA, immobilized biotin peptide
In short: (§2)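 In this ELISA, half-well high binding plates (Corning Cat. #3690) received 3 ug/mL/25 ul per well of biotin-tagged PSGL-1 peptides covering residues 42 to 62, diluted in PBS, pH 7.4, and coated overnight at 4° C. Duplicate readings for each antibody were averaged and the average assay background was subtracted. PSGL-1 protein or peptide was the positive control.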

[8] = target: T8, Biotin Y46,48,51(SO3) PSGL-1(42-62) …; assay: ELISA, immobilized biotin peptide
In short: as §2

[9] = target: T9, Biotin PSGL-1(42-62) peptide, unmodified; assay: ELISA, immobilized biotin peptide
In short: as §2

T11 sequence (P0C0L4 20-675 limits assumed, form in doubt, chain 1 of 3): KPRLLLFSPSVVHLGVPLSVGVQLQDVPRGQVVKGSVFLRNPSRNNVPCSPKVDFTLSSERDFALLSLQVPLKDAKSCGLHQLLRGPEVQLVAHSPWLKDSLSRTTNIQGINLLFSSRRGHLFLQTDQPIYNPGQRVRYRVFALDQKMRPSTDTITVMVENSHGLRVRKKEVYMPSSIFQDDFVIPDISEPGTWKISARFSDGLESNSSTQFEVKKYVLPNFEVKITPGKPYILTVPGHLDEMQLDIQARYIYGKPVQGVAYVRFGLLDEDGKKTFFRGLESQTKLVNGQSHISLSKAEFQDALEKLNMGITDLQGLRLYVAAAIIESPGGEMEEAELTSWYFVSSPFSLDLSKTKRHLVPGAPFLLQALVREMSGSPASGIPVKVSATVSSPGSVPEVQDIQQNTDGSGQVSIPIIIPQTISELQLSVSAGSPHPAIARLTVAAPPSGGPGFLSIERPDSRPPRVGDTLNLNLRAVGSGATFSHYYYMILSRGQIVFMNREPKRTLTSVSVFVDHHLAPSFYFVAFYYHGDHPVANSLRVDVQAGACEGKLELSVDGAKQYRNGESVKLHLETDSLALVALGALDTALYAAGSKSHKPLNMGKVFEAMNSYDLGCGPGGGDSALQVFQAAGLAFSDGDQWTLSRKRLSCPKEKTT
T11 sequence (P0C0L4 680-1446 limits assumed, form in doubt, chain 2 of 3): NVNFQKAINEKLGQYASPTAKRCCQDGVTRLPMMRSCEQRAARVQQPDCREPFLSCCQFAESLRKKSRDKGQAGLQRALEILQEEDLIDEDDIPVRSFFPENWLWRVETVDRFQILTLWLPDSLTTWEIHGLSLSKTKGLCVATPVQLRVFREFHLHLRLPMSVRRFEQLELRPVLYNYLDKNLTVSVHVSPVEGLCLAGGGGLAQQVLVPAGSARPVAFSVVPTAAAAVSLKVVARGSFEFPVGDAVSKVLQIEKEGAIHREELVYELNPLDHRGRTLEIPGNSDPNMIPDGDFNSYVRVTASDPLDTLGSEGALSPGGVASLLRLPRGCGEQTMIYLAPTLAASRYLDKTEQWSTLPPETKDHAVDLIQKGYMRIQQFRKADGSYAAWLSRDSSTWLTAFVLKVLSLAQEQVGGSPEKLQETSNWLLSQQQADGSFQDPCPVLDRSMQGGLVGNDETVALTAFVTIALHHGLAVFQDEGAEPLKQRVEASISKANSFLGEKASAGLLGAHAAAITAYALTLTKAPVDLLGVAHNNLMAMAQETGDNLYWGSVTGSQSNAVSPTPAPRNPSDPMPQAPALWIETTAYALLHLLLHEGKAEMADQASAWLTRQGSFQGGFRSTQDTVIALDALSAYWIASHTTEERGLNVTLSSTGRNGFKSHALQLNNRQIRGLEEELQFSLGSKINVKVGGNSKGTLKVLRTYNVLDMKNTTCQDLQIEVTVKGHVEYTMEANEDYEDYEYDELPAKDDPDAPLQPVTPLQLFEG
T11 sequence (P0C0L4 1454-1744 limits assumed, form in doubt, chain 3 of 3): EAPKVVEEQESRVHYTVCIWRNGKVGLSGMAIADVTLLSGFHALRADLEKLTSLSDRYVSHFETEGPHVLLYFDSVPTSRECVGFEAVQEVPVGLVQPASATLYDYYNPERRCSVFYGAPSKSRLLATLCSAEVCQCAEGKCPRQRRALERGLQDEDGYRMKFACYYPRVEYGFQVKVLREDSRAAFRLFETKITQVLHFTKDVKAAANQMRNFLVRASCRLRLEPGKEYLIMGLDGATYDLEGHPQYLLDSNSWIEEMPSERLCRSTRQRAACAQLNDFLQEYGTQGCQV

Row | binding result [1] | binding normalized to PSGL-1 [2] | binding normalized to PSGL-1 [3] | binding normalized to PSGL-1 [4] | binding normalized to PSGL-1 [5] | binding normalized to PSGL-1 (SulfoCCK biotin peptide) | binding normalized to PSGL-1 (SulfoTyr C4 peptide) | binding normalized to PSGL-1 [6] | binding result [7] | A450nm, 20 nM mAb [8] [A450nm] | A450nm, 20 nM mAb [9] [A450nm] | A450nm, 20 nM mAb [7] [A450nm] | EC50 [8] [nM] | EC50 [9] [nM] | Binder
1 | no binding (tested: 20 nM) | 1.22 | 1.22 | 0.53 | 1.09 | 1.17 | 1.15 | 1.13 | no binding (tested: 20 nM) | 2.44 | 0.17 | – | – | – | 05A07 (antibody, IgG4, V domains shown) VH: QVQLVQSGSEVKRPGASVKVSCKTSGYTFSNYGIAWVRQAPGQGLEWVGWVSAYNGKTGASQKLQGRVTMTTDRSTTTAYLELRSLQSDDTAVYYCARGVKGGLTGYARDYWGQGTLVIVSS VL: DIVLTQSPRSLPVTLGQPASISCRSSQSLVNRAGDTYLNWFQQRPGQSPRRLIYKVSNRDSGVPDRFSGSGSGTDFTLKISRVEAEDVGVYYCMQGTQWPYTFGQGTKLEIK
2 | no binding (tested: 20 nM) | 1.23 | – | 0.11 | 1.1 | 1.14 | 1.15 | 1.1 | no binding (tested: 20 nM) | 2.62 | – | 0.04 | 0.04 | ~500 | 03B01 (antibody, IgG4, V domains shown) VH: QMQLVQSGAEVKKPGASVKVSCRASGYRFSTYAISWVRQAPGQGLEWIGWISTHHGNTKYAQKFQDRVTMTADASTSIAYMELRSLRSDDTAVYYCAAAIGNYWGQGTLVTVSS VL: EIVLTQSPAILSVSPGERASLSCRASQSVSSKLAWYQQKPGQAPRLLIYGASTRATGIPPRFSGSGSGTDFTLTISSLEPEDFAVYYCQQRSNWPLTFGGGTKVEIK
3 | no binding (tested: 20 nM) | 1.34 | – | 0.11 | 1.32 | 1.27 | 1.34 | 0.94 | no binding (tested: 20 nM) | 2.45 | – | 0.03 | 1.6 | > 500 | 02H08 (antibody, IgG4, V domains shown) VH: not shown VL: QSVLTQPPSVSAAPGQKVTISCSGSYFNIGNHYVSWYHQLPGTAPKLLIYDNNLRPSGIPDRFSASKSGTSATLGITGLQTGDEGDYYCGTWDSSLSGRVFGGGTKLTVL
4 | no binding (tested: 20 nM) | 0.97 | 0.69 | 0.07 | 0.78 | 1.1 | 0.94 | 0.58 | no binding (tested: 20 nM) | 2.72 | – | – | 0.03 | 3.8 | 02G01 (antibody, IgG4, V domains shown) VH: EVQLVQSGAEVKKPGASVKVSCKASGYTFTSYGISWVRQAPGQGLEWMGWISAYNGNTNYAQKLQGRVTMTTDTSTSTAYMELRSLRSDDTAVYYCARVTRLPGGGYAFDIWGQGTMVTVSL VL: QSVLTQPPSASGTPGQRITISCSGSTSNIGNKHVYWYQQFPGAAPKLLIHNTNKRPSGVPDRFSGSKSGTSASLAISGLQSDDEADYYCAAWDGSLSAWVFGGGTKLTVL
5 | no binding (tested: 20 nM) | 1.22 | – | 0.03 | 0.61 | 0.78 | 0.97 | 1.09 | no binding (tested: 20 nM) | 2.57 | 0.37 | – | – | – | 06B02 (antibody, IgG4, V domains shown) VH: QVQLVESGPGLVKPSETLSLTCTVSGVSVSSYYWTWVRQSPGKGLEWIGHVHHSGISNYNPSLKSRVVMSVDTSKNYFSLKLRSVTAADTAVYYCARGGPRISPTNWGQGTLVTVSS VL: QPVLTQPPSVSKALRQTATLTCTGNSNNVGYQGATWLRQHQGHPPRLLSYRNNNRPSGISERFSASRSGNTATLTITGLQPDDEADYYCAAWDSSLSAWVFGGGTKLTVL
